From patent US20170157198A1

B1: JBT0783 (peptide)
chain: LKARLREFYGFVFVNKKSQF
B2: JBT0720 (peptide)
chain: FQSKGNVFVTGYFARLRAKL
B3: JBT0681 (peptide)
chain: FQSKGAVFVFGYFARLRAKL

Tests used:
[1] = target: T1, TFPI (human TFPI-1α), as coated or added in the ELISA and model assays (human), P10646; assay: ELISA; conditions: modification not given
[2] = target: T1, TFPI (human TFPI-1α), as coated or …; assay: competition; conditions: modification not given

| Binder | IC50 [1] | IC50 [2] |
| --- | --- | --- |
| B1 | > 1.67 µM |  |
| B2 | 0.027 µM |  |
| B3 |  | 0.068 µM |
